Measurements: patent US20090136500A1

What was measured:
[1] = target: PAI-1 (immobilized antigen of the P-ELISA of Figure 13, species not stated); test: P-ELISA on immobilized biotin-labeled PAI-1 (species not stated), antibody with EDTA, A450
[2] = target: PAI-1 (antigen of Example 11, species not stated); test: SPR-type biosensor, 25 C, global 1:1 fit (format for mP-1 not given)
PAI-1 (antigen of Example 11, species not stated), sequence (P05121 24-402): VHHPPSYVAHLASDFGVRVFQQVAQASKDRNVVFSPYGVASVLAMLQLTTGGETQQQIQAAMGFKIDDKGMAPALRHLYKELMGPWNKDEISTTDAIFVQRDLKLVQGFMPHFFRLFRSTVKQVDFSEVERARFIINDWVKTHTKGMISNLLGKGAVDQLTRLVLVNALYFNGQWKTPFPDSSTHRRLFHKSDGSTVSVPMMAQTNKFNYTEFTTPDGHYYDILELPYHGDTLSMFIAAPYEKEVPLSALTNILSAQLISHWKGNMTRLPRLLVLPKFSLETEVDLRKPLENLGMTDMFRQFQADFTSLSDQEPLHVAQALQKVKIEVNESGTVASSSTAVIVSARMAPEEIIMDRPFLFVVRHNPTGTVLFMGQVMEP

PAI-1 (immobilized antigen of the P-ELISA of Figure 13, species not stated), sequence (P05121 24-402): as above

EC50 (read off the curve) [1]: 0.1 mg/L
Kd [2]: 8.01 nM
koff [2]: 0.00314 s⁻¹
kon [2]: 393000 M⁻¹ s⁻¹
B1: murine monoclonal antibody 33B8 (antibody, V domains shown)
VH: QIQLVQSGPELKKPGKTVTISCKASGYTFTNYGMNWVKQAPGKGLKWMGWINTYTGEPTYTDDFKGRFAFSLDTSASTAYLQISNLKNEDTATYFCAKDVSGFVFDYWGQGTTVTVSS
VL: DIVMTQSPSSLAVSVGEKVTMSCKSSQSLLNIIKQKNCLAWYQQKPGQSPKLLIYWASTRESGVPDRFTGSGSGTDFTLTISSVKAEDLAVYYCQQYYSYPYTFGGGTKLEIK
